According to patent US10793871B2, “Nucleic acid molecule encoding glei protein variant with increased phytic acid sensitivity and use thereof” (University-Industry Foundation, Yonsei University, priority 2015, dated 2020):
Substitutions are numbered along the chain they refer to.

Key:
LOS4 ATPase = test: Steady-state ATPase assay of LOS4-His; type: biochemical, Arabidopsis thaliana; settings: for stimulation of LOS4 ATPase activity in the absence of InsP6: 1 μM LOS4-His, 2 mM ATP, 2 μM MBP-Gle1C or variant
Procedure: A steady-state ATPase assay was performed as described by Alcázar-Román et al. (Inositol hexakisphosphate and Gle1 activate the DEAD-box protein Dbp5 for nuclear mRNA export. Nat. Cell Biol. 8: 711-716, 2006) with slight modifications. The ATPase assay was performed with a LOS4-His protein in a 96-well plate using a buffer containing 20 mM HEPES (pH 7.5), 150 mM NaCl, 3 mM MgCl2, 1 mM DTT, 2 mM ATP, 6 mM phosphoenolpyruvate, 1.2 mM NADH, 1 mg/ml BSA and 2% (v/v) pyruvate kinase/lactate dihydrogenase (Sigma-Aldrich) in a total volume of 100 μl. Polyadenylic acid was added at 50 μg/ml or different concentrations as described above. Absorbance at 340 nm was measured using a VersaMax absorbance microplate reader (Molecular Devices), and the data were analyzed using SoftMax Pro software (Molecular Devices).
Gle1 and Gle1C (aa residues 244-611) were cloned into a pMAL C2X vector (New England Biolabs) for MBP fusion, LOS4 was cloned into a pET-29a vector for His fusion. MBP-Gle1 and MBP-Gle1C proteins were expressed in a BL21 (DE3) strain, and LOS4-His proteins were expressed in a Rosseta (DE3) strain of Escherichia coli. Cells were grown at 37° C. to an A600 of 0.4, shifted to 16° C., and induced by 0.25 mM IPTG for 16 hours. The MBP- and His-fusion proteins were purified following the manufacturer's introductions using MBP Excellose (Bioprogen) and His60 Ni Superflow™ resin (Clontech), respectively.

[1] = molecular target: 6x-histidine-fused LOS4 (LOS4-His) (Arabidopsis) (UniProt Q93ZG7)
[2] = molecular target: 6x-histidine-fused LOS4 (LOS4-His) (Arabidopsis) (UniProt Q93ZG7); remark: listed apart in the source
LOS4-His = molecular target: T1, LOS4-His (Arabidopsis thaliana, UniProt Q93ZG7); test: In vitro pull-down assay; type: binding; settings: Coomassie blue staining of eluted proteins
T1 construct: LOS4 was cloned into a pET-29a vector for His fusion; made in house; host or cells: Escherichia coli Rosetta (DE3) for LOS4-His; BL21 (DE3) for MBP-Gle1
T1 sequence (Q93ZG7 1-496): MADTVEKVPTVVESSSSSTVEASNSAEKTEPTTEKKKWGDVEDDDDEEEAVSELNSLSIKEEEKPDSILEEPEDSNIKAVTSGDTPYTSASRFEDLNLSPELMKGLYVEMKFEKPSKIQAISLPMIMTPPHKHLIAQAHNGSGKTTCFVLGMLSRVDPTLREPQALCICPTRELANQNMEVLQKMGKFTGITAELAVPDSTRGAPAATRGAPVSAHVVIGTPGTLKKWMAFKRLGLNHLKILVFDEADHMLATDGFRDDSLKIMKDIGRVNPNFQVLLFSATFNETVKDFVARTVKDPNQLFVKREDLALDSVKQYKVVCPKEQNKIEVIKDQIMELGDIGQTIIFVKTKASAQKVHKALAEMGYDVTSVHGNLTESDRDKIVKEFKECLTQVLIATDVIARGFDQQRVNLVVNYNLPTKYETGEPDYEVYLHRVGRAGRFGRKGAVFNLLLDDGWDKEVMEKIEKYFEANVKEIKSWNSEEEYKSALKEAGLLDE
Procedure: MBP and MBP-Gle1 proteins immobilized on MBP Excellose (Bioprogen) were incubated with LOS4-His proteins for 2 hours at room temperature. Similarly, LOS4-His proteins immobilized on a His60 Ni Superflow™ resin (Clontech) were incubated with MBP or MBP-Gle1 for 2 hours at room temperature. After extensive washing of the resins, the bound proteins were eluted with 2× SDS sample buffer, and the eluted proteins were visualized by Coomassie blue staining.

[3] = molecular target: T2, LOS4 RNA helicase activity (Arabidopsis thaliana, UniProt Q93ZG7); test: In vitro nucleic acid-melting assay with hairpin-shaped molecular beacons; type: biochemical; settings: in the presence of ATP; LOS4-His:MBP-Gle1 1:1, 1:2, 1:4 or LOS4-His only
T2 construct: LOS4 was cloned into a pET-29a vector for His fusion; made in house; host or cells: Escherichia coli Rosetta (DE3) for LOS4-His; BL21 (DE3) for MBP-Gle1
T2 sequence (Q93ZG7 1-496): T1 sequence (Q93ZG7 1-496)
Procedure: A nucleic acid-melting assay was performed as described by Kim et al. (Cold shock domain proteins and glycine-rich RNA-binding proteins from Arabidopsis thaliana can promote the cold adaptation process in Escherichia coli. Nucleic Acids Res. 35: 506-516, 2007) using 78-nucleotide-long, 9-bp-containing, hairpin-shaped molecular beacons conjugated with a fluorophore (tetramethylrhodamine) and a quencher (Dabcyl). Spectrofluorometry was performed using a fluorescence spectrophotometer (Hitachi F-2000) at an excitation wavelength of 555 nm and an emission wavelength of 575 nm.

O=S(=O)(O)OC1C(OS(=O)(=O)O)C(OS(=O)(=O)O)C(OS(=O)(=O)O)C(OS(=O)(=O)O)C1OS(=O)(=O)O (centres unmarked) [InsP6 analog, reference compound]
further stimulation of LOS4 ATPase activity (LOS4 ATPase; LOS4-His 1 μM, ATP 2 mM, RNA, MBP-Gle1 2 μM plus 10 μM InsP6 analog): did not do so

polyadenylic acid [RNA, reference compound]
LOS4 ATPase activity (LOS4 ATPase; LOS4-His 1 μM, ATP 2 mM, RNA 50 μg/ml only): moderately stimulated LOS4 ATPase activity

MBP-Gle1C (ID)
LOS4 ATPase activity in the absence of InsP6 (fold decrease) [1]: 2

MBP fusion protein of the carboxyl-terminal domain of Gle1 (MBP-Gle1C; amino acid residues 244-611)
apparent kcat of LOS4-His ATPase [2]: 0.565 s⁻¹

B1: MBP-Gle1: maltose-binding protein (MBP)-fused full-length Arabidopsis Gle1 (protein)
chain: MGIVLEPPCPKSVDGISIDPEPNWNFESLVAEIASVEKKLNGFSMYPQPITNTTLRMGRRGGGFVMHVSEDEMESDEGEESDDEEEEEDHSQICTAGKRFACDELYLSDESDEEFDHEPEYMMNKLGLAESALYEVINDHQTEIKDDIRNQVSVVETEIMNEIETSLSAIARVEKYSETRKEVERKLDLQYQRKVAEALDTHLTAVQREHKIKSQIEERKIRSEEAQEEARRKERAHQEEKIRQEKARAEAQMLAKIRAEEEKKEVERKAAREVAEKEVADRKAAEQKLAEQKAVIESVTGSSATSNAQAGGNSIRAAESALILENHRLKKLEELETTNQSLKSRSNENFSSFEKHIGRVIRQISGTKDSVSGKINDIVKIFKDPRCPVSISIAAFAKKMVTTKEKPNPFACSYVIVYINSQFPQVMDILLAEFHKACIYTVPKHIVNSQSAWDSDAYERLDSIMRLYGALVQTDIRVGNATNVHGIEHGWAWLARFLNKIPANRATATALNSFLQTAGFGLHQRYKSQFLKVVNVVREHFLQKLRAKKDTSDLLVIIAEITAYLDDRMYLKEPEGRAMKTTSTLSSELTAELNQPNYNQNYQRNDYRNYY
pull-down by nickel resin-bound LOS4-His (LOS4-His): could pull down MBP-Gle1 | beacon fluorescence (LOS4 RNA helicase activity) [3]: significant increase in fluorescence in a concentration-dependent manner | induction of LOS4 ATPase activity (LOS4 ATPase; LOS4-His 1 μM, ATP 2 mM, RNA 50 μg/ml and MBP-Gle1 (full length) 2 μM): threefold

B2: LOS4-His: 6×-histidine-fused LOS4, Arabidopsis DEAD-box ATPase/RNA helicase, homolog of yeast Dbp5 (protein)
chain: T1 sequence (Q93ZG7 1-496)
beacon fluorescence (LOS4 RNA helicase activity) [3]: did not increase the fluorescence of the beacons | apparent kcat of LOS4-His (LOS4 ATPase; LOS4-His (1 μM) alone, 0-2 mM ATP): 0.267 s⁻¹

B3: MBP-Gle1C (IS1): MBP fusion of Arabidopsis Gle1C variant InsP6-Sensitive 1: mutation from A437 to K (protein)
chain: QEKARAEAQMLAKIRAEEEKKEVERKAAREVAEKEVADRKAAEQKLAEQKAVIESVTGSSATSNAQAGGNSIRAAESALILENHRLKKLEELETTNQSLKSRSNENFSSFEKHIGRVIRQISGTKDSVSGKINDIVKIFKDPRCPVSISIAAFAKKMVTTKEKPNPFACSYVIVYINSQFPQVMDILLAEFHKKCIYTVPKHIVNSQSAWDSDAYERLDSIMRLYGALVQTDIRVGNATNVHGIEHGWAWLARFLNKIPANRATATALNSFLQTAGFGLHQRYKSQFLKVVNVVREHFLQKLRAKKDTSDLLVIIAEITAYLDDRMYLKEPEGRAMKTTSTLSSELTAELNQPNYNQNYQRNDYRNYY
stimulation of LOS4 ATPase activity in the absence of InsP6 (LOS4 ATPase; RNA, no InsP6): activated LOS4 ATPase activity to similar degrees | InsP6 concentration at which LOS4-stimulating activity increases above basal (LOS4 ATPase; with RNA, InsP6 0-100 μM): 100 nM | InsP6 concentration giving maximum LOS4-stimulating activity (LOS4 ATPase; with RNA, InsP6 0-100 μM): ~1 µM

B4: MBP-Gle1C (IS2): MBP fusion of Arabidopsis Gle1C variant InsP6-Sensitive 2: double mutations from E433 to K and from A437 to K (protein)
chain: B3 chain with E190K
stimulation of LOS4 ATPase activity in the absence of InsP6 (LOS4 ATPase; RNA, no InsP6): reduced abilities to stimulate LOS4 | InsP6 concentration at which LOS4-stimulating activity increases above basal (LOS4 ATPase; with RNA, InsP6 0-100 μM): 1 nM | InsP6 concentration giving full stimulation of LOS4 ATPase activity (LOS4 ATPase; with RNA, InsP6 0-100 μM): 100 nM

B5: MBP-Gle1C (ID): MBP fusion of Arabidopsis Gle1C variant InsP6-Dead: mutation from K436 to A (protein)
chain: B3 chain with K193A, K194A
stimulation of LOS4 ATPase activity in the absence of InsP6 (LOS4 ATPase; RNA, no InsP6): reduced abilities to stimulate LOS4 | decrease in LOS4-stimulating activity in the absence of InsP6 (LOS4 ATPase; K436A mutation vs MBP-Gle1C, no InsP6): > 2 fold
